From patent US20080166293A1

Biological target: human transferrin receptor (hTfR) (human) (UniProt P02786)
Assay: Scatchard analysis, 125I-labelled protein (tyrosine of the peptide iodinated) on CEF+hTfR cells on ice

Sequence of human transferrin receptor (hTfR) (human) (P02786 whole entry): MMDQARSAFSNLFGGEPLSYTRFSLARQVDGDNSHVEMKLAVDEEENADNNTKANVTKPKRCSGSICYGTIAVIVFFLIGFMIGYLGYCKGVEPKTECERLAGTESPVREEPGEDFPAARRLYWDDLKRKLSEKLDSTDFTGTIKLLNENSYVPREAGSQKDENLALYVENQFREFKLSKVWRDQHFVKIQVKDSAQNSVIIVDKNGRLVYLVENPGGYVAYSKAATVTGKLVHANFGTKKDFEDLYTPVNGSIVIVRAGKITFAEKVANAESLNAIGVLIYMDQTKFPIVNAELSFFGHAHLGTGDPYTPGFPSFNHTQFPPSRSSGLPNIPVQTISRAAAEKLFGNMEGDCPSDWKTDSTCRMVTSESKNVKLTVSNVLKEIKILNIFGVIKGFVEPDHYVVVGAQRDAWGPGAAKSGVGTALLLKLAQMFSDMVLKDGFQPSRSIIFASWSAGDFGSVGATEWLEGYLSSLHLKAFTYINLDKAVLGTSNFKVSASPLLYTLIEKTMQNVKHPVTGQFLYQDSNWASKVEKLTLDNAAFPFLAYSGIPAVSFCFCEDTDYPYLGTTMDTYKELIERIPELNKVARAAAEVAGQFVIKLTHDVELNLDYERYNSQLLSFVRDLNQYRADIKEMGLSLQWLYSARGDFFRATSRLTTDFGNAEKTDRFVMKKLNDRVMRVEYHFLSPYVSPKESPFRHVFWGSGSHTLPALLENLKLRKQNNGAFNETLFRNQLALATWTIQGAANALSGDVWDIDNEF

Kd: 360 µM
Substance: GFP-HAIYPRH (Seq. ID No. 1)
